This series is described as follows: soluble on expression in E. coli; label from the status in PepcDB or PDB records.
Consider “MKTSSYLLKAGVDYPTNWDEFVDWFHDEQSCTSYLYALRWPNGFICPSCSSHQSPYQLSNGKLKCHACRFQCSVTSSTLFDKTRTPMKSWFAAVWFITNQKNGVSALGVQRLLGLGSYQTAWSLMHKLRYAMVDPERDKLSGIVEVDETLIGGVIPKSSIKNQQGKRKAIVLVAVELLSPSGFGRIRLRQVESATKEHIHQFIQDVIEPGSTICSDGSQAYKQIDKKGYKHNRMVHLGSSVPAHETMAGVHRVSSLCKRWLLGTYQGAVKAKQLDYYLDEFTFRFNRRKSDSRGLLFYRLLEQAVRSKPITYQSIKNRLEHHHHHH”, for which the “soluble on expression in E. coli” value was “not soluble”. The result for “MKTTLLSAVLASTLLVCAPATVLAQPATSSAPAAQGAATKTVIDSSTRILSTLDQRRAEFRGNPAALRQYINGELNKAFDRDYSARLVLGVHGRGASDADVKLFADALAENLMQRYGTALLNFEGKPTFRAKSESALPGNRGVKVSTDLLRAGNDPTPVDYLMRNSGGQWKIFDVMIEGISYVQTFKTQFDGPLREKGIAKVAADLRSGNLQVGATPANGQLEHHHHHH” reads “soluble”; that for “MKTVALIQARLGSSRLPCKMMLSLHGLPVIDWVVRRVRRATLVDEVVVATSTQPENDILEHHLSRQGVAVFRGPEDDVLERFRLAGAAYGAEQVVRVCADNPLIWGGAIDDLIRFWRAEGCDYAYNHIPRGNLYPDGLGAETLSFALLEEVAREATLPEHREHCLSFIWAHPERYTIRTFDPADPALHRPDLKLDMDTPADYRYLALMDIHPDITPEELVAMLPRTALEHHHHHH”, “soluble”. To “MKVAIIGATGYGGIELIRLLEQHPYFSIASLHSFSQVGECITNVYPHFQNVLVHTLQEIDVEEIEKEAEIVFLATPAGVSAELTPKLLAVGLKVIDLSGDFRMKDPFIYEQWYKRAAAKEGVLREAVYGLSEWKRSEIQKANLIANPGCFATAALLAILPLVRSGIIEEDSIIIDAKSGVSGAGKTPTTMTHFPELYDNLRIYKVNEHQHIPEIEQMLAEWNRETKPITFSTHLIPISRGIMVTLYAKVKREMEIEQLQQLYEEAYEQSAFIRIRMQGEFPSPKEVRGSNYCDMGIAYDERTGRVTIVSVIDNMMKGAAGQAIQNANIVAGLEETTGLQHMPLYL” belongs “not soluble”; to “MKVFGISGSPRLQGTHFAVNYALNYLKEKGAEVRYFSVSRKKINFCLHCDYCIKKKEGCIHKDDMEEVYENLIWADGVIIGTPVYQGNVTGQLKTLMDRCRAILAKNPKVLRGRVGMAIAVGGDRNGGQEIALRTIHDFFIINEMIPVGGGSFGANLGATFWSKDRGKKGVEEDEEGLRVLRKTLNRFYEVLKEKRGLLEHHHHHH”, “not soluble”. Consider “MKVFTFLLIIMVCLYNFGVRAAMDNSKHSDEAEKLLAELSARKGEGEGEGEGEGEGEGEGEPKSTVSVFYLQPEEVNTLSHQAKRGDGEAGFRLFLYYKLSNYDEEKSSQWLKIAANNGHATAQYRLYVELQEQGETKEANEWLQKIKLAASNNDSSAIWFLVNCYKNQGNKKEALQWAYKLKASKQPLDADRLIEELTKEQK”, for which the “soluble on expression in E. coli” value was “soluble”. To “MKVLEERNAFLSDYEVLKFLTDLEKKHLWDQKSLAALKKSRSKGKQNRPYNHPELQGITRNVVNYLSINKNFINQEDEGEERESSGAKDAEKSGISKMSDESFAELMTKLNSFKLFKAEKLQIVNQLPANMVHLYSIVEECDARFDEKTIEEMLEIISAYA” belongs “soluble”; to “MKVLNELRQFYPLDELLRAAEIPRSTFYYHLKALSKPDKYADVKKRIGEIYHENRGRYGYRRVTLSLHREGKQINHKAVQRLMGTLSLKAAIKVKRYRSYRGEVGQTAPNVLQRDFKATRPNEKWVTDVTEFAVNGRKLYLSPVIDLFNNEVISYSLSERPVMNMVENMLDQAFKKLNPHEHPVLHSDQGWQYRMRRYQNILKEHGIKQSMSRKGNCLDNAVVECFFGTLKSECFYLDEFSNISELKDAVTEYIEYYNSRRISLKLKGLTPIEYRNQTYMPRV”, “not soluble”; to “MKVNTWFGVLELDSNGKTLSSEVFPKDIRELALRSLSLRESRQNLPPEGFDLKTAALECGFTESLSEYYSLLHKVTLETVKLQVSQALTPDQRIIQAVEALDDINETTNSLSERLFEWYGGYFPESGLSGEELAVFISRYGSRENLPPEDPHYLKAKNSMGAKLEAADEVLLKGLAESVCSLYERRKQIEAYIESSMEILAPNLALLAGPMLGARLISIAGSLEKLAAFPSSTIQVIGASKALFKHLRSRAPSPKHGIIYSHPLINTSPWWVRGKVARALAAKLSLAARIDFYSAKRNPSLENELEEKIRKIRAENPRPPQKRQEIRAKPKKKRRKLEHHHHHH”, “soluble”.

Take “MKVSKFGGSSVSNATQIKKVLNIVNSDPERKIVIVSAPGKRHDNDIKTTDLLIRLYEKVINHLDYHDKKREIIQRYDDIVKELQMDESILRTIDVTLEHYINQLKNEPKRLLDALLSCGEDFNAQLIALYNNSQGIPTKYISPKEAGIFVTDVPQEAQILDSAYSEIKKLRDYDEKLIIPGFFGVSHEGYIVTFPRGGSDITGAIISSGVRATIYENFTDVSGIYKANPNIIKDPELIEEITYREMRELSYAGFSVFHDEALQPLYKDRIPVVIKNTNRPQDKGTFIVHDREINAKNVISGISCDKDFTVINIKKYLMNRQVGFTRKILGVLEDNNISFDHMPSGIDTISIVMRSKQIQNKETKVLNEIRQKCDVDELSIEHDLAILMIVGEGMNKVIGTANKITHALAESKINLKMINQGASEISMMFGIHVDDAEKAVLSTYEFCYHGVALKNLCDKNMAGDPLEHHHHHH”: the “soluble on expression in E. coli” value was “not soluble”.

As to “MKVSQVFISAISVFGLATSVNAQNASNTTSNAAPALHAQNGQLLNAGVVGAAVGGALAFLI”, the “soluble on expression in E. coli” value was “soluble”. The result for “MKVVILGSGSYSGTPKPLCNCENCSIARRNPAFRRTRFSLYIEEGKILVDPSPDLHYHLERLNKKVENVFITHAHFDHIFGVPDLQVYKKLIISSNTLGIKVAKELSRLAFGSEVPSGYEWRYEELQFWNEYSFDNFRVIHFPVIHSLEIAGGYLFEIKGRRIGVTGDTGPEILKDEKVKKLLEGVDILIVEMTKRESIPGVHLGVSDSIEFAKVVGASYTVFAHISHTNYSHEVLEKRVRESGVQGEVARDFTIIEVLEHHHHHH” reads “not soluble”. The result for “MKVVPAQRCVYSFSANMAPVEEVYPGEQVVFETLDALGGSYDKIDFSKVNPATGPVFVNGVKPGDTLKVRIKRIELPRRGMIVTGKGFGVLGDEVEGFHTKELEIEKWAVLFDGVRIPIHPMVGVIGVAPQEGEYPTGTAHRHGGNMDTKEITENVTVHLPVFQEGALLALGDVHATMGDGEVCVSACEVPAKVVVEIDVSKEEIKWPVVETNDAYYIIVSLPDIEEALKEVTRETVWFIQRRKTIPFTDAYMLASLSVDVGISQLVNPAKTAKARIPKYIFTGVLEHHHHHH” reads “not soluble”; that for “MKWTGEDVALYERERDYIDTALLPLLPVAFGQGAKRLASGGELVGLIAAEVERQLKGRLFLMPSFVYFADEPRALLTERLADWTNRLRREGMKHLFYVTCDRAWQEGEEADRVWFVPVVPLESMGESYKHELVREQAAELLRFLIGRWAQE”, “not soluble”. To “MKYDTSELCDIYQEDVNVVEPLFSNFGGRSSFGGQIITVKCFEDNGLLYDLLEQNGRGRVLLVDGGGSVRRALVDAELARLATQNEWEGLVIYGAVRQVDDLEELDIGIQAIAAIPVGAAGEGIGESDVRVNFGGVTFFSGDHLYADNTGIILSEDPLDIE” belongs “not soluble”; to “MKYLHTEKDYLDLLLAVKRKFDYQRSIVPYIVYFLLKTGMRFGELVALTWNEVDFDRGLLKTYRRYNTLSHKFVPPKNKTSIRMVPIDEECIKILRLLQTEQERANMELGIKNRYRMIFQHFGYIHSVPDIASVNKALSVLLNELDIYPIITTKGARHTYGSYLWHKGFDLGVIAKILGHRDISMLVEVYGHTLEEKIFEEFNQIRDIWKDCSLEHHHHHH”, “not soluble”; to “MKYLLVDLSGKVDNYDKALYQALEKELSNEKSSIQLLIPGHGLIRLIPNKFSQTEFIVKRLIKALEGGINYIYLLLHVAFKKIDTIHFQWLPFVEVVGIEKYILYLLHVLSPQTKVILTIHNIYPHGVKSMSDSGKQKYKKRFRDTCRNIDNIIVHTESSKMEVIKEFDFVPDIISIVHHGVFIPKIRISKKEFLQKNKYVILQFGLQTYYKGTDILVDAVNLLPAEYSEKIETRIVGGVGESYLQELKGKDSNSLIHWKSYFLSNDELYEEINNSDVLVLPYREISQSGVLLLSIYFEKNIICSDLPSFVETIHGDQDNSLDHDFFFKNNDPSSLCELLMRYIDSNINNEKIQYRIKHLKNLYSWENAAKATISIYRK”, “not soluble”.

Turning to “MKYQLNLTALRCPIPLLSAKKALKNLDKNDELMLILNLESAVENFSIFAEENSVALVEQYYASEKEFIVILKK”, the “soluble on expression in E. coli” value is “not soluble”.

Take “MKYRSVFDIIGPVMIGPSSSHTAGAARMGQVARQLFRHEPERVSISLYGSFAKTYRGHGTDVALIGGILGFETDDLRIPEALEIAKEREIEVEFIEEDANAPHPNTARIRLYKGEEEIEVVACSIGGGKIEVVELNGFDLQLSGTSPALLIVNNDRFGAIAAVASILAKHEINISTMSVSRKEKGRRALMVIETDEILADEVIEEIKAQQNICQVTIME”: the “soluble on expression in E. coli” value is listed as “not soluble”. The result for “MKYTQSFCFVSVIVLSSSVHLHGQNNKMNVLLIIADDMRPELGCYGIEDIVTPRLDSLARYATVFQNAYCNIPVSGASRASLFTGMYPRYPNRFTAFDASAEKDCPEALSLPECFKKNGYYVVSNGKVFHNITDHADSWSEAPWRVHPDGYGKDWAEYNKWELWQNEESSRYVHPKTLRGPFCESADVADTTYIDGRVAQKTIADLRRLHKKEKPFFLACGFWKPHLPFNAPKKYWDLYRREEIHLAQNPYRPKALPKQVTSSGEIRGYGKFVTTKDETFQREAKHGYYACVSYIDAQIGLILDELDRLGLSENTIVVILGDHGWHLGEHGFWGKHNLMNHATRAPLIVRVPHCRGGKAKGIVEFVDIYPTLCELCGVPMPKDQLQGKSFVPILQDSGKKTKQYAFIQWKGGYNIVSEQYSSTIWLQGDSVVARMIFDRQLDASENENKVHCPYLSRERDKLEAQIKIRKSQLLEHHHHHH” reads “not soluble”; that for “MKYVIGIDGGGSKTHMKISTLDYKVLLEVFKGPSNINSSTKEEVKRVLQELIMEGLGKLGQSLEECSAICIGTAGADRTEDKSIIEDMIRSLGYMGKIIVVNDAEIALAGGIEKREGIIVISGTGSICYGRNKEGRSARSGGWGHIIGDEGSGYDIGIKAIKAALKSFDKRGEKTILEGDILDFLKLKSHEDLINYIYRSGVTKKEIASLTRVVNSAYIKGDLVSKRILKEAARELFLSVKAVVEVLSMQNKKVVLTTAGGVINNINYLYDEFRKFLNLNYPKVKIISMKNDSAFGAVIIARSECDMAGDPLEHHHHHH”, “not soluble”; that for “MLAKRIIPCLDVRDGQVVKGVQFRNHEIIGDIVPLAKRYAEEGADELVFYDITASSDGRVVDKSWVSRVAEVIDIPFCVAGGIKSLEDAAKILSFGADKISINSPALADPTLITRLADRFGVQCIVVGIDTWYDAETGKYHVNQYTGDESRTRVTQWETLDWVQEVQKRGAGEIVLNMMNQDGVRNGYDLEQLKKVREVCHVPLIASGGAGTMEHFLEAFRDADVDGALAASVFHKQIINIGELKAYLATQGVEIRIC”, “not soluble”.

Source of the values: the DeepSol protein solubility set.
